Experimental data from paper PMC9723622, “PARP1 proximity proteomics reveals interaction partners at stressed replication forks” (Nucleic Acids Research, 2022).
Each block holds one binder with its values, some of them ahead of it.

Molecular target: T1, recombinant PARP1 (human, UniProt P09874 1-1014)
T1 construct: PARP1, recombinant; also called purified PARP1; source: recombinant, purified
Assay: pull-down; His-GFP-TPX2 proteins immobilised on GFP-Trap beads, equimolar recombinant PARP1 added, 2 h 4°C; 20 mM Tris-HCl pH 7.5, 250 mM NaCl, 0.2% glycerol, 0.2% Triton X-100; Western blot
Conditions: both partners purified

T1 sequence (P09874 whole entry): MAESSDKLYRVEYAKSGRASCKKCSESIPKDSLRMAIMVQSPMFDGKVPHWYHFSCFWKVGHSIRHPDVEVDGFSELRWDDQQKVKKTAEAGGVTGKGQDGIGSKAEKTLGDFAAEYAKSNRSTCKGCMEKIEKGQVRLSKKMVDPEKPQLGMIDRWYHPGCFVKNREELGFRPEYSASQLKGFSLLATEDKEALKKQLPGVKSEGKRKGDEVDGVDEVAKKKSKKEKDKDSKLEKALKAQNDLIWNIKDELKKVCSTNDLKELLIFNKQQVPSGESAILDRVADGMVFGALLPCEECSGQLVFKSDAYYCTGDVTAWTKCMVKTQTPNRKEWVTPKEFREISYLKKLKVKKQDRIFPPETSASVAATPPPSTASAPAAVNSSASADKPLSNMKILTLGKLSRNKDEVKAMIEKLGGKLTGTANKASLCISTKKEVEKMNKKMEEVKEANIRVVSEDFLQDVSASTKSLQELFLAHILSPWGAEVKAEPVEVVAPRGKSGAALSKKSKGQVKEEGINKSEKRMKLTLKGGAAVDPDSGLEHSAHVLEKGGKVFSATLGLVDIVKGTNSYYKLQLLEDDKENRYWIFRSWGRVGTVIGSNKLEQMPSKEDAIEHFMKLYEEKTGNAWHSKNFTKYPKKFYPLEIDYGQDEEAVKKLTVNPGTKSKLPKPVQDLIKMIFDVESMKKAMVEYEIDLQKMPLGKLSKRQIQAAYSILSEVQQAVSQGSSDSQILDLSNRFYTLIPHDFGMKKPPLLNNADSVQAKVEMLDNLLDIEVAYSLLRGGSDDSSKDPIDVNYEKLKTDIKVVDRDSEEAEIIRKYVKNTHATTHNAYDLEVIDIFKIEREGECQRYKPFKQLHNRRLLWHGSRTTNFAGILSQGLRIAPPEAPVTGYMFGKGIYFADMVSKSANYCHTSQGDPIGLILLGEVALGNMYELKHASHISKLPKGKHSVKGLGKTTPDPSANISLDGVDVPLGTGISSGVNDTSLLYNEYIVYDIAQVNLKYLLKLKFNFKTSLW

binding result: binds
B1: His-GFP-tagged TPX2 full-length protein (recombinant) (natural protein, UniProt Q9ULW0 1-747, looked up)
chain: MSQVKSSYSYDAPSDFINFSSLDDEGDTQNIDSWFEEKANLENKLLGKNGTGGLFQGKTPLRKANLQQAIVTPLKPVDNTYYKEAEKENLVEQSIPSNACSSLEVEAAISRKTPAQPQRRSLRLSAQKDLEQKEKHHVKMKAKRCATPVIIDEILPSKKMKVSNNKKKPEEEGSAHQDTAEKNASSPEKAKGRHTVPCMPPAKQKFLKSTEEQELEKSMKMQQEVVEMRKKNEEFKKLALAGIGQPVKKSVSQVTKSVDFHFRTDERIKQHPKNQEEYKEVNFTSELRKHPSSPARVTKGCTIVKPFNLSQGKKRTFDETVSTYVPLAQQVEDFHKRTPNRYHLRSKKDDINLLPSKSSVTKICRDPQTPVLQTKHRARAVTCKSTAELEAEELEKLQQYKFKARELDPRILEGGPILPKKPPVKPPTEPIGFDLEIEKRIQERESKKKTEDEHFEFHSRPCPTKILEDVVGVPEKKVLPITVPKSPAFALKNRIRMPTKEDEEEDEPVVIKAQPVPHYGVPFKPQIPEARTVEICPFSFDSRDKERQLQKEKKIKELQKGEVPKFKALPLPHFDTINLPEKKVKNVTQIEPFCLETDRRGALKAQTWKHQLEEELRQQKEAACFKARPNTVISQEPFVPKKEKKSVAEGLSGSLVQEPFQLATEKRAKERQELEKRMAEVEAQKAQQLEEARLQEEEQKKEELARLRRELVHKANPIRKYQGLEIKSSDQPLTVPVSPKFSTRFHC
notes: TPX2, full length; also called recombinant TPX2; full-length TPX2; source: recombinant, purified

binding result: binds
B2: His-GFP-tagged TPX2 N-terminal part (1–254 amino acids), recombinant (domain or fragment, UniProt Q9ULW0 1-254, looked up)
chain: MSQVKSSYSYDAPSDFINFSSLDDEGDTQNIDSWFEEKANLENKLLGKNGTGGLFQGKTPLRKANLQQAIVTPLKPVDNTYYKEAEKENLVEQSIPSNACSSLEVEAAISRKTPAQPQRRSLRLSAQKDLEQKEKHHVKMKAKRCATPVIIDEILPSKKMKVSNNKKKPEEEGSAHQDTAEKNASSPEKAKGRHTVPCMPPAKQKFLKSTEEQELEKSMKMQQEVVEMRKKNEEFKKLALAGIGQPVKKSVSQV
notes: also called TPX2_254only; source: recombinant, purified
